The results in this text go back to article PMC3355487 (mAbs, 2012).

Like-named read-outs stand apart in the source and are kept apart here.

Assay [1] concerns the target T1, Fc-hROR1 (Homo sapiens, UniProt Q01973). Description: SPR. On the technique in general: Surface plasmon resonance follows binding to a sensor surface in real time, without labels.
The target of assay [2] is T2, hROR1-ECD (Homo sapiens, UniProt Q01973). The assay is described as follows: SPR.
The target in assay [3] is Fc-mROR1 (Mus musculus, UniProt Q9Z139). The assay is described as follows: ELISA. In general terms: ELISA stands for enzyme-linked immunosorbent assay.
Fc-mROR1, sequence (Q9Z139 30-406): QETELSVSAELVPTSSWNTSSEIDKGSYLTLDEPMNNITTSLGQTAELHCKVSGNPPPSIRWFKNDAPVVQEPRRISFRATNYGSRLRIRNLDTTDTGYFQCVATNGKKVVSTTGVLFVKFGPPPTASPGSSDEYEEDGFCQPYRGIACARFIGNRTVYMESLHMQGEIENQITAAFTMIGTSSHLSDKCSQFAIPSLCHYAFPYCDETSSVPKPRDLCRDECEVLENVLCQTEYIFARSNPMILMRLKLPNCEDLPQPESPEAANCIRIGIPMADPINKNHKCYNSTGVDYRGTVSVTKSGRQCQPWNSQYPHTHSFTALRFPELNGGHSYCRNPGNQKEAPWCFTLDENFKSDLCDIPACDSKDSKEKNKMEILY
The target of assay [4] is Fc-hROR1Fz+Kr (Homo sapiens, UniProt Q01973). Description: ELISA.
The target of assay [5] is Fc-hROR1Fz (Homo sapiens, UniProt Q01973). The assay is described as follows: ELISA.
Fc-hROR1Fz, sequence (Q01973 165-299): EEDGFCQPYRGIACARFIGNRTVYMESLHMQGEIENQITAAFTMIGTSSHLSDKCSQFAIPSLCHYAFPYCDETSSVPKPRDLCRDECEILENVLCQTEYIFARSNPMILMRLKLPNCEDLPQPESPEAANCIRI
Assay [6] deals with Fc-hROR1Kr (Homo sapiens, UniProt Q01973). The assay is described as follows: ELISA.
The target in assay [7] is T1, Fc-hROR1. The assay is described as follows: SPR. The source holds these as a separate data set.
For assay [8], the target named is T2, hROR1-ECD. The assay is described as follows: SPR. The source holds these as a separate data set.

T2 sequence (Q01973 30-406): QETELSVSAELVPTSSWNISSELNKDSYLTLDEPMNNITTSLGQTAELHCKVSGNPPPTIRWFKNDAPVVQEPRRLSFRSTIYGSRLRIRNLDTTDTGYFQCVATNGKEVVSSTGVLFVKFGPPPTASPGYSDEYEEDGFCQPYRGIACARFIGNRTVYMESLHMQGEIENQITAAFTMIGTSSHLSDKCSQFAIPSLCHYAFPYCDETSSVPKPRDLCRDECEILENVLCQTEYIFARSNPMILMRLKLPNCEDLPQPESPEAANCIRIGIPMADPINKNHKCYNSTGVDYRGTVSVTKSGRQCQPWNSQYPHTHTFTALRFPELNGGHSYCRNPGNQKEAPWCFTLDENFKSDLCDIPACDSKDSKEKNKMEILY
T1 sequence (Q01973 30-406): as above

B1: mouse anti-human ROR1 monoclonal antibody 2A2-IgG (antibody, V domains shown)
VH: QVQLQQSGAELVRPGASVTLSCKASGYTFSDYEMHWVIQTPVHGLEWIGAIDPETGGTAYNQKFKGKAILTADKSSSTAYMELRSLTSEDSAVYYCTGYYDYDSFTYWGQGTLVTVSA
VL: DIVMTQSQKIMSTTVGDRVSITCKASQNVDAAVAWYQQKPGQSPKLLIYSASNRYTGVPDRFTGSGSGTDFTLTISNMQSEDLADYFCQQYDIYPYTFGGGTKLEIK
For B1, the Kd (in general, a measure of binding affinity in units of concentration) was 420 pM in assay [1], 120 pM in assay [2], 790 pM in assay [7] and 32600 pM in assay [8]. Besides, the koff (as a rule, a measure of how fast the partners let go of each other) in assay [1] turned out to be 0.00034 s⁻¹; in assay [2], 0.00018 s⁻¹; in assay [7] it was 0.00018 s⁻¹; in assay [8], 0.00777 s⁻¹. Besides, the kon (usually the rate constant with which the complex forms) in assay [1] was 810000 M⁻¹ s⁻¹; in assay [2], 1.52e+06 M⁻¹ s⁻¹; in assay [7] it was 230000 M⁻¹ s⁻¹; in assay [8], 240000 M⁻¹ s⁻¹. For the same molecule, the binding result in assay [3] is on record as “binds”; in assay [4], “no binding”; in assay [5], “no binding”; in assay [6], “no binding”.
